T1: CLIP-6Myc-FLAG-TEV-Myc-Drosha (human, UniProt Q9NRR4 1-1374, CLIP-surface 547 or CLIP-surface 488 fluorophore on the CLIP tag)
T1 sequence: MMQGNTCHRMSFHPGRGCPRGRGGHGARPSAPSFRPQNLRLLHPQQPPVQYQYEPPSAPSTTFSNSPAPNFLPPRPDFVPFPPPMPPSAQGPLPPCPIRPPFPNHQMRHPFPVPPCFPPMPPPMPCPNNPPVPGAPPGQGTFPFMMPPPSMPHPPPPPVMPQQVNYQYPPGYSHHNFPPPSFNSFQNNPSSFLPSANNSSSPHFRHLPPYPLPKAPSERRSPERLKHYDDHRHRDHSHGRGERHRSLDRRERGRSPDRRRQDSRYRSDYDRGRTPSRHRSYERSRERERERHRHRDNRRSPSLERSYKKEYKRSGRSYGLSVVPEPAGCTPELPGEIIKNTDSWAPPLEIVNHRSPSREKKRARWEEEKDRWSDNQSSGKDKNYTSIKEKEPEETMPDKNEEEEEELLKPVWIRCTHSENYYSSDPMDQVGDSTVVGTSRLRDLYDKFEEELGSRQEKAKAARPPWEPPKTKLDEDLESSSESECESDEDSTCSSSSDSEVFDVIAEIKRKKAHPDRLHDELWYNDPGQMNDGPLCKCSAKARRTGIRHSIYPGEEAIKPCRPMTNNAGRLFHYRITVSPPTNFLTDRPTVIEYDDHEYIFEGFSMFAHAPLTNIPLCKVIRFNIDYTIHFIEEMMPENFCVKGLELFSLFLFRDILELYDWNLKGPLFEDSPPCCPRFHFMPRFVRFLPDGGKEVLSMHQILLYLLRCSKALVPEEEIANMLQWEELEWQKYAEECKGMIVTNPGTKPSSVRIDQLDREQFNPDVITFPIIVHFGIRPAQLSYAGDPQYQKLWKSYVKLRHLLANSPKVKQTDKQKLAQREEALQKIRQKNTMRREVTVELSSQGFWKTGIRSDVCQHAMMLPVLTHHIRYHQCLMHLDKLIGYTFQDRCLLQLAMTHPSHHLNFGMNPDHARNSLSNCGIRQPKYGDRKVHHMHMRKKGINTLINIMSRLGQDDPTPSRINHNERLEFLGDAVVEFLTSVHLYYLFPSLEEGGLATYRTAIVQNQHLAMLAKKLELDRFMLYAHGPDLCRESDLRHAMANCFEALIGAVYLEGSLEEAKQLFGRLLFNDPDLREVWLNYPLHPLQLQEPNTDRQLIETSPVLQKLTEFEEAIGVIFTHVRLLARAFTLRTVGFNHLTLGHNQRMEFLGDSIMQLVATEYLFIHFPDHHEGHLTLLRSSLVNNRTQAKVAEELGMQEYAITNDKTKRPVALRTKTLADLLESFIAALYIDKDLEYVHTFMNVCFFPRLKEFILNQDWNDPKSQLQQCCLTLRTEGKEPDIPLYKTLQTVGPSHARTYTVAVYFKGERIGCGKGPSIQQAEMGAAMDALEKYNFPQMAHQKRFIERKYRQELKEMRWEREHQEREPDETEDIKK


Key:
[1] = target: T1, CLIP-6Myc-FLAG-TEV-Myc-Drosha; test: single-molecule immunoprecipitation with subunit counting by photobleaching
[2] = target: the molecule itself; test: as above
[3] = target: the molecule itself; test: SEC + other: glycerol gradient centrifugation

| stoichiometry N [1] | Binder | stoichiometry N [2] | stoichiometry N [3] |
| --- | --- | --- | --- |
| 2 DGCR8 per Drosha | SNAP-DGCR8 (natural protein, SNAP-surface Alexa fluor 546 or SNAP-surface Alexa fluor 647 on the SNAP tag) METDESPSPLPCGPAGEAVMESRARPFQALPREQSPPPPLQTSSGAEVMDVGSGGDGQSELPAEDPFNFYGASLLSKGSFSKGRLLIDPNCSGHSPRTARHAPAVRKFSPDLKLLKDVKISVSFTESCRSKDRKVLYTGAERDVRAECGLLLSPVSGDVHACPFGGSVGDGVGIGGESADKKDEENELDQEKRVEYAVLDELEDFTDNLELDEEGAGGFTAKAIVQRDRVDEEALNFPYEDDFDNDVDALLEEGLCAPKKRRTEEKYGGDSDHPSDGETSVQPMMTKIKTVLKSRGRPPTEPLPDGWIMTFHNSGVPVYLHRESRVVTWSRPYFLGTGSIRKHDPPLSSIPCLHYKKMKDNEEREQSSDLTPSGDVSPVKPLSRSAELEFPLDEPDSMGADPGPPDEKDPLGAEAAPGALGQVKAKVEVCKDESVDLEEFRSYLEKRFDFEQVTVKKFRTWAERRQFNREMKRKQAESERPILPANQKLITLSVQDAPTKKEFVINPNGKSEVCILHEYMQRVLKVRPVYNFFECENPSEPFGASVTIDGVTYGSGTASSKKLAKNKAARATLEILIPDFVKQTSEEKPKDSEELEYFNHISIEDSRVYELTSKAGLLSPYQILHECLKRNHGMGDTSIKFEVVPGKNQKSEYVMACGKHTVRGWCKNKRVGKQLASQKILQLLHPHVKNWGSLLRMYGRESSKMVKQETSDKSVIELQQYAKKNKPNLHILSKLQEEMKRLAEEREETRKKPKMSIVASAQPGGEPLCTVDV | 2 DGCR8 per complex | – |
| – | FLAG-SNAP-DGCR8 (natural protein, SNAP-surface 546 Alexa fluorophore on the SNAP tag in a portion of the sample) METDESPSPLPCGPAGEAVMESRARPFQALPREQSPPPPLQTSSGAEVMDVGSGGDGQSELPAEDPFNFYGASLLSKGSFSKGRLLIDPNCSGHSPRTARHAPAVRKFSPDLKLLKDVKISVSFTESCRSKDRKVLYTGAERDVRAECGLLLSPVSGDVHACPFGGSVGDGVGIGGESADKKDEENELDQEKRVEYAVLDELEDFTDNLELDEEGAGGFTAKAIVQRDRVDEEALNFPYEDDFDNDVDALLEEGLCAPKKRRTEEKYGGDSDHPSDGETSVQPMMTKIKTVLKSRGRPPTEPLPDGWIMTFHNSGVPVYLHRESRVVTWSRPYFLGTGSIRKHDPPLSSIPCLHYKKMKDNEEREQSSDLTPSGDVSPVKPLSRSAELEFPLDEPDSMGADPGPPDEKDPLGAEAAPGALGQVKAKVEVCKDESVDLEEFRSYLEKRFDFEQVTVKKFRTWAERRQFNREMKRKQAESERPILPANQKLITLSVQDAPTKKEFVINPNGKSEVCILHEYMQRVLKVRPVYNFFECENPSEPFGASVTIDGVTYGSGTASSKKLAKNKAARATLEILIPDFVKQTSEEKPKDSEELEYFNHISIEDSRVYELTSKAGLLSPYQILHECLKRNHGMGDTSIKFEVVPGKNQKSEYVMACGKHTVRGWCKNKRVGKQLASQKILQLLHPHVKNWGSLLRMYGRESSKMVKQETSDKSVIELQQYAKKNKPNLHILSKLQEEMKRLAEEREETRKKPKMSIVASAQPGGEPLCTVDV | – | 2 SNAP-DGCR8 per complex |

— publication PMC4712668 (RNA, 2016)
